The values below are quoted from earlier work in paper PMC2975797.

Some results are limits rather than exact numbers.

This data set deals with von Willebrand factor (Homo sapiens) (UniProt P04275).

Factor VIII (from UniProt P00451): the Kd was under 0.5 nM.
